Source: publication PMC8187723
pKd: −log10 of the molar value.

Target: recombinant human MXRA8-Fc fusion protein (UniProt Q9BRK3)
Conditions: 37 °C; n = 2; parent: est. 19; read off a plot

Ross River virus T48, CPER-recovered wild type, purified virus (E1/E2 envelope glycoproteins on the virion) E2:H64W
pKd: 7.18
